Assay results as given in paper PMC3673938, “Two Distinct Calmodulin Binding Sites in the Third Intracellular Loop and Carboxyl Tail of Angiotensin II (AT1A) Receptor” (PLoS ONE, 2013).

Assays:
[1] = molecular target: GST-ATct(297–359); assay: pull-down; competition: 2 pmol GST-fusion protein incubated with bovine brain CaM (2 or 10 pmol) for 30 minutes in 20 mM Tris-HCl, 70 mM NaCl, 0.1 mM CaCl2, pH 7.5, then 2 pmol Gβγ for 1 hour; glutathione-sepharose 4B beads; immunoblot with anti-Gβ
[2] = molecular target: GST-ATi3(213–242); assay: as above
Chain of GST-ATi3(213–242) (P29754 213-242): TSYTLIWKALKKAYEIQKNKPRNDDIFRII

[3] = molecular target: GST-ATctN(297–324)F313A (UniProt P25095); assay: pull-down; 50 pmol GST-fusion protein with purified bovine brain CaM (50 pmol) in 250 µl of 100 mM Tris-HCl pH 7.5 with 0.1 mM CaCl2; 4°C; glutathione-sepharose 4B beads; immunoblot with anti-CaM; for the mutants density of CaM against loaded GST-fusion protein
Chain of GST-ATctN(297–324)F313A (P25095 297-324 F313A): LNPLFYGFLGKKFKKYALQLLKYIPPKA

[4] = molecular target: GST-ATi3N(213–234)W219A (UniProt P25095); assay: as above
Chain of GST-ATi3N(213–234)W219A (P25095 213-234 W219A): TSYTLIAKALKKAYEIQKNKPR

[5] = molecular target: GST-ATctN(297–324)F309A (UniProt P25095); assay: as above
Chain of GST-ATctN(297–324)F309A (P25095 297-324 F309A): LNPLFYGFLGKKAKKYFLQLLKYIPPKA

[6] = molecular target: AT1A receptor-eYFP (UniProt P25095); assay: FRET or BRET; BRET in living HEK293 cells stably expressing AT1A receptor-eYFP and transiently RLuc-CaM, CaM-RLuc or RLuc; 5 µM coelenterazine; ratio 525 nm/460 nm; with or without W7 (20 min) and/or 100 nM Ang II
Chain of AT1A receptor-eYFP (P25095 whole entry): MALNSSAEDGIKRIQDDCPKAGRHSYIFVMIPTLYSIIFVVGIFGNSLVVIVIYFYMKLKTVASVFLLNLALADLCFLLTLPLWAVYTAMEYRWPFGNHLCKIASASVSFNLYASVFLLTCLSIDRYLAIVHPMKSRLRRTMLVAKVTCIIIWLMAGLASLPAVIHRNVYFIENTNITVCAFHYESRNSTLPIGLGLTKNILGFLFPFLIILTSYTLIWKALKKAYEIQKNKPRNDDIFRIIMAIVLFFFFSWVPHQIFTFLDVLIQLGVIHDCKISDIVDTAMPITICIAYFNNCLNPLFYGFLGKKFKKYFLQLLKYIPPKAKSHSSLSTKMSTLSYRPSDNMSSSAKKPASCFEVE

Gβγ bound to GST-ct with 2 pmol CaM, % of no CaM [1] [%]	Gβγ bound to GST-ct with 10 pmol CaM, % of no CaM [1] [%]	Gβγ bound to GST-i3 loop with 2 pmol CaM, % of no CaM [2] [%]	Gβγ bound to GST-i3 loop with 10 pmol CaM, % of no CaM [2] [%]	relative binding efficiency, % of wild type (% of wild type) [3]	relative binding efficiency, % of wild type (% of wild type) [4]	relative binding efficiency, % of wild type (% of wild type) [5]	BRET ratio with the CaM inhibitor W7, % of untreated (% of non-W7-treated) [6]	Substance
73	34	77	60	22	32	29		calmodulin purified from bovine brain (from UniProt P62157 1-149) (natural protein)
							40	CaM-RLuc (from UniProt P0DP23 1-149) (natural protein)
